In patent US20170052184A1 (published 2017):
Ends that are not written are not given here.

Experiments:
[1] = biological target: T1, Mut6T110S biotin labeled HCV core peptide (hepatitis C virus); assay: EIA; Ab 1000 ng/mL captured on anti-mouse Fc; bt-peptide 500 ng/mL
[2] = biological target: T2, C113T109N biotin labeled HCV core peptide (hepatitis C virus, also: biotin labeled, position not given here); assay: as above
T2 peptide: RGSRPSWGPND

[3] = biological target: T3, C113WT biotin labeled HCV core peptide (hepatitis C virus, also: biotin labeled, position not given here); assay: as above
T3 peptide: RGSRPSWGPTD

[4] = biological target: T4, Mut1T110N biotin labeled HCV core peptide (hepatitis C virus, biotin labeled); assay: as above
T4 peptide: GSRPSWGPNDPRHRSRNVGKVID

[5] = biological target: T5, WT1STHV biotin labeled HCV core peptide (hepatitis C virus, biotin labeled); assay: as above
T5 peptide: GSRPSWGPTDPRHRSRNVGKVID

[6] = biological target: T1, Mut6T110S biotin labeled HCV core …; assay: EIA; Ab 500 ng/mL captured on anti-mouse Fc; bt-peptide 500 ng/mL
[7] = biological target: T2, C113T109N biotin labeled HCV core …; assay: as above
[8] = biological target: T3, C113WT biotin labeled HCV core peptide; assay: as above
[9] = biological target: T4, Mut1T110N biotin labeled HCV core …; assay: as above
[10] = biological target: T5, WT1STHV biotin labeled HCV core peptide; assay: as above
[11] = biological target: T1, Mut6T110S biotin labeled HCV core …; assay: EIA; Ab 31.25 ng/mL captured on anti-mouse Fc; bt-peptide 500 ng/mL
[12] = biological target: T2, C113T109N biotin labeled HCV core …; assay: as above
[13] = biological target: T3, C113WT biotin labeled HCV core peptide; assay: as above
[14] = biological target: T5, WT1STHV biotin labeled HCV core peptide; assay: as above
[15] = biological target: T1, Mut6T110S biotin labeled HCV core …; assay: EIA; Ab 3.906 ng/mL captured on anti-mouse Fc; bt-peptide 500 ng/mL
[16] = biological target: T2, C113T109N biotin labeled HCV core …; assay: as above
[17] = biological target: T3, C113WT biotin labeled HCV core peptide; assay: as above
[18] = biological target: T4, Mut1T110N biotin labeled HCV core …; assay: as above
[19] = biological target: T5, WT1STHV biotin labeled HCV core peptide; assay: as above
[20] = biological target: T1, Mut6T110S biotin labeled HCV core …; assay: EIA; Ab 250 ng/mL captured on anti-mouse Fc; bt-peptide 500 ng/mL
[21] = biological target: T2, C113T109N biotin labeled HCV core …; assay: as above
[22] = biological target: T4, Mut1T110N biotin labeled HCV core …; assay: as above
[23] = biological target: T1, Mut6T110S biotin labeled HCV core …; assay: EIA; Ab 2000 ng/mL captured on anti-mouse Fc; bt-peptide 500 ng/mL
[24] = biological target: T2, C113T109N biotin labeled HCV core …; assay: as above
[25] = biological target: T3, C113WT biotin labeled HCV core peptide; assay: as above
[26] = biological target: T4, Mut1T110N biotin labeled HCV core …; assay: as above
[27] = biological target: T5, WT1STHV biotin labeled HCV core peptide; assay: as above

B1: HCV Neo4 monoclonal antibody (antibody, V domains shown)
VH: QIQLKESGPAVIKPSQSLSLTCIVSGFSITSSVYCWQWIRQPPGKGLEWMGRICYDGSVDYSPSITSRGTISRDTSLNKVFFQLSSVTNEDTAMYYCSRENHIDYYDTTYPSFDVWGAGTTVTVSS
VL: DIVLTQSPASLIVSLGQRATISCRASKSVNEYGYTYMHWYQQKPGLPPKLLIYLASNLDSGVPARFSGSGSGTDFTLNIHPVEEEDAATYYCQHSRELPYTFGGGTKLEIKR
signal at 492 nm [1]: 1.17 OD 492 nm | signal at 492 nm [2]: 0.0591 OD 492 nm | signal at 492 nm [3]: 0.222 OD 492 nm | signal at 492 nm [4]: 0.0678 OD 492 nm | signal at 492 nm [5]: 2 OD 492 nm | signal at 492 nm [6]: 1.17 OD 492 nm | signal at 492 nm [7]: 0.0803 OD 492 nm | signal at 492 nm [8]: 0.0561 OD 492 nm | signal at 492 nm [9]: 0.065 OD 492 nm | signal at 492 nm [10]: 1.91 OD 492 nm | signal at 492 nm [11]: 0.48 OD 492 nm | signal at 492 nm [12]: 0.0815 OD 492 nm | signal at 492 nm [13]: 0.0622 OD 492 nm | signal at 492 nm [14]: 1.67 OD 492 nm | signal at 492 nm [15]: 0.0847 OD 492 nm | signal at 492 nm [16]: 0.0717 OD 492 nm | signal at 492 nm [17]: 0.0694 OD 492 nm | signal at 492 nm [18]: 0.0719 OD 492 nm | signal at 492 nm [19]: 0.669 OD 492 nm | signal at 492 nm [20]: 1.15 OD 492 nm | signal at 492 nm [21]: 0.111 OD 492 nm | signal at 492 nm [22]: 0.089 OD 492 nm | signal at 492 nm [23]: 1.17 OD 492 nm | signal at 492 nm [24]: 0.059 OD 492 nm | signal at 492 nm [25]: 0.0766 OD 492 nm | signal at 492 nm [26]: 0.0882 OD 492 nm | signal at 492 nm [27]: 1.9 OD 492 nm
